Assay results: patent US10251926B2, “Extract from indigo naturalis and a process for preparing the same” (Galderma S.A., priority 2015, dated 2019)

How the values were obtained:
HaCaT = HaCaT proliferation, MTT assay; type: cell-based; conditions: Homo sapiens, 72 hours, unit nM
Description: HaCaT, a human epidermal keratinocyte line from The Second Military Medical University (SMMU), China, was cultured in DMEM containing 10% FBS.
HaCaT were seeded in 96-well plates at 4×10^4 cells/well overnight. Stausporine or test articles were then added into the culture and incubated at 37° C., 5% CO2 for 72 hours. After removal of the media, the cells in 96-well plates were exposed to 100 μL of MTT (0.5 mg/mL in DMEM containing 10% FBS per well and incubated for 3 hours at 37° C., 5% CO2. Subsequently, the supernatants were removed and 150 μL of DMSO were added to each well. The plate was incubated in the dark for 10 minutes and the absorbance at 492 nm was recorded immediately using Multiskan MK3microplate reader (Thermo Life Sciences, HK, China).
All IC50 values were determined by using Xlfit™ software (version 2.0) from ID
Background was defined in culture with cells treated with DMSO only and was subtracted for IC50 calculations.

ears of mice = experiment: Ear inflammation after intradermal injection of IL-22 (study 1, establishment of model); type: in vivo, BABL/c mice
Description: FIG. 3: Group and dosing for in vivo evaluation of extracts from Qingdai in IL-22 induced psoriasis model. Five studies were designed and outlined in study 1-5, respectively. In Study 1, 100 ng and 500 ng of IL-22 in 20 μL saline, i.d., were used for induction. In study 2-5, 500 ng of IL-22 in […], i.d., were used for induction.
FIG. 4: Figures illustrate ear inflammation after intradermal injection of IL-22. In the studies, ears of mice were injected intradermally and ear thickness was measured on days between injections.
BABL/c mice, male, body weight 19-22 g, purchased from Shanghai SLC AnimalCenter.
Intradermal injection of 20 μL PBS, either alone or containing 100 or 500 ng recombinant mouse IL-22 (eBiosience), was administered into the ears of anesthetized mice using a 30-gauge needle every other day for eleven days. Ear thicknesses were measured before injection on day 0 and thereafter on days without injections. Ear measurements were taken at the center of the ears using a digimatic micrometer caliper (Mitutoyo).
Results of ear thickness data were expressed as mean±S.E.M. AUC of ear swelling was calculated by the ear thickness data from day 0 to day 11, and analyzed by repeated-measured ANOVA methods with JMP® software. Cytokine protein and gene expression data were evaluated with a one-way ANOVA and followed by student's t-test for post-hoc analysis. […]

Row | Molecule | IC50 (HaCaT) [nM] | ear thickness (d 15) (ears of mice; study 1, IL-22 100 ng in 20 μL saline i.d., day 15) [μm] | ear thickness (d 15) (ears of mice; study 1, IL-22 500 ng in 20 μL saline i.d., second value of the cell, day 15 as in the lines above) [μm]
1 | CN[C@@H]1C[C@H]2O[C@@](C)([C@@H]1OC)n1c3ccccc3c3c4c(c5c6ccccc6n2c5c31)C(=O)NC4 [Staurosporine] | 3.18 |  | 
2 | IL-22: Recombinant mouse IL-22, intradermal inducer of ear inflammation (protein, UniProt Q9JJY9 34-179, looked up) Interleukin-22: LPVNTRCKLEVSNFQQPYIVNRTFMLAKEASLADNNTDVRLIGEKLFRGVSAKDQCYLMKQVLNFTLEDVLLPQSDRFQPYMQEVVPFLTKLSNQLSSCHISGDDQNIQKNVRRLKETVKKLGESGEIKAIGELDLLFMSLRNACV |  | 255.3 ± 15.1 | 296.3 ± 5.0
